Results as given in patent publication US20070178095A1.

Assays:
Assay in all cases: ELISA, growth factor coated at 10 ug/ml, antibody at 10 ug/ml, mean of duplicate wells
[1] = biological target: TGF-alpha (R&D Systems 239-A) (UniProt P01135)
[2] = biological target: TGF-beta1 (Peprotech, Inc. 100-21R) (UniProt P01137)
[3] = biological target: Activin B (R&D Systems 659-AB) (UniProt P09529)
[4] = biological target: IGF-1 (R&D Systems 291-G1) (UniProt P05019)
[5] = biological target: Activin A (R&D Systems 338-AC) (UniProt P08476)
[6] = biological target: BMP-7 (R&D Systems 354-BP) (UniProt P18075)
[7] = biological target: recombinant human GDF-11 (Peprotech, Inc., Cat. # 120-11, carrier-free) (human) (UniProt O95390)
[8] = biological target: BMP-2 (R&D Systems 355-BEC/CF) (UniProt P12643)
[9] = biological target: recombinant mouse myostatin (R&D systems, Cat. #788-G8/CF, carrier-free) (mouse) (UniProt O08689)
[10] = biological target: BMP-5 (R&D Systems 615-BM) (UniProt P22003)
[11] = biological target: TGF-beta2 (Peprotech, Inc. 100-35) (UniProt P61812)
[12] = biological target: BMP-6 (R&D Systems 507-BP) (UniProt P22004)
Sequence of BMP-6 (R&D Systems 507-BP) (P22004 382-513 limits assumed): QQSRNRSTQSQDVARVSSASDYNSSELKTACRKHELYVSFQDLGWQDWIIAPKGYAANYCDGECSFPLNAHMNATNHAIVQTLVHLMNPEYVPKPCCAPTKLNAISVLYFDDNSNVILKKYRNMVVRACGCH

Sequence of IGF-1 (R&D Systems 291-G1) (P05019 49-118 limits assumed): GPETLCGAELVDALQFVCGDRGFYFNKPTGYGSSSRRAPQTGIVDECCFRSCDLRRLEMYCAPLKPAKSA
Sequence of Activin A (R&D Systems 338-AC) (P08476 311-426 limits assumed): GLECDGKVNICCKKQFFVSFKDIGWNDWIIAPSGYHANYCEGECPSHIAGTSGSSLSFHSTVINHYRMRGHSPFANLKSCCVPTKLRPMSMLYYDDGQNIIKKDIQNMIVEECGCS
Sequence of BMP-5 (R&D Systems 615-BM) (P22003 317-454 limits assumed): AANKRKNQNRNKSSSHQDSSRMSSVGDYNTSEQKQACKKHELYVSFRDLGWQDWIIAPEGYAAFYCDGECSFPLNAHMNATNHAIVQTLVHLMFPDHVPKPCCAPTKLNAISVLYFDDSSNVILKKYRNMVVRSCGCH
Sequence of BMP-7 (R&D Systems 354-BP) (P18075 293-431 limits assumed): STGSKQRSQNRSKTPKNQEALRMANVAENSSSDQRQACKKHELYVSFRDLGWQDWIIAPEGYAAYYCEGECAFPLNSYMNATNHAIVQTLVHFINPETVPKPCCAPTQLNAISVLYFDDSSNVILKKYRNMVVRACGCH
Sequence of recombinant mouse myostatin (R&D systems, Cat. #788-G8/CF, carrier-free) (mouse) (O08689 268-376): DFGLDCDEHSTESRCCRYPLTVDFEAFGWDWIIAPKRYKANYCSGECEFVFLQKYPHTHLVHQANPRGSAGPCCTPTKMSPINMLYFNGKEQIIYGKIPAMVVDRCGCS
Sequence of recombinant human GDF-11 (Peprotech, Inc., Cat. # 120-11, carrier-free) (human) (O95390 299-407 limits assumed): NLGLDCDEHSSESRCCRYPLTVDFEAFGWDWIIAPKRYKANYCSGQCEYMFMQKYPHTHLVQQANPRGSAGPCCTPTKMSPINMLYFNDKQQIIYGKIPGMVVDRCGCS
Sequence of BMP-2 (R&D Systems 355-BEC/CF) (P12643 283-396 limits assumed): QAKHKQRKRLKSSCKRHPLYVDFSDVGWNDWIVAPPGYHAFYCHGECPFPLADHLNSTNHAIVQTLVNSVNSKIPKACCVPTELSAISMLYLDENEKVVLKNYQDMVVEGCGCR
Sequence of TGF-beta1 (Peprotech, Inc. 100-21R) (P01137 279-390 limits assumed): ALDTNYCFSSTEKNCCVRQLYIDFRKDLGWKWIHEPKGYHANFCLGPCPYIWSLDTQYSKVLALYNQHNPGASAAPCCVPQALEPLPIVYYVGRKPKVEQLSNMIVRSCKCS
Sequence of TGF-alpha (R&D Systems 239-A) (P01135 40-89 limits assumed): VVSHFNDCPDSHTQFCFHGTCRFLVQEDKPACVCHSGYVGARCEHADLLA
Sequence of Activin B (R&D Systems 659-AB) (P09529 293-407 limits assumed): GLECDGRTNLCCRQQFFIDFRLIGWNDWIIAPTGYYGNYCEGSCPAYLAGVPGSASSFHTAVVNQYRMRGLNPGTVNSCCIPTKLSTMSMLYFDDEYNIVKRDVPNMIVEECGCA
Sequence of TGF-beta2 (Peprotech, Inc. 100-35) (P61812 303-414 limits assumed): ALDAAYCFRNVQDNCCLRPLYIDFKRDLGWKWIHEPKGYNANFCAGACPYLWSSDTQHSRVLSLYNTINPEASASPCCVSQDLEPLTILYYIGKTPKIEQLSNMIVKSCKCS

## polyclonal anti-myostatin antibody (R&D Systems, catalog #AF788)
[1]
  absorbance at 490 nm: 0.0445 OD 490 nm
[2]
  absorbance at 490 nm: 0.0425 OD 490 nm
[3]
  absorbance at 490 nm: 0.0485 OD 490 nm
[4]
  absorbance at 490 nm: 0.045 OD 490 nm
[5]
  absorbance at 490 nm: 0.049 OD 490 nm
[6]
  absorbance at 490 nm: 0.042 OD 490 nm
[7]
  absorbance at 490 nm: 2.62 OD 490 nm
[8]
  absorbance at 490 nm: 0.0525 OD 490 nm
[9]
  absorbance at 490 nm: 2.94 OD 490 nm
[10]
  absorbance at 490 nm: 0.038 OD 490 nm
[11]
  absorbance at 490 nm: 0.0525 OD 490 nm
[12]
  absorbance at 490 nm: 0.0745 OD 490 nm
